{"source": "paper PMC12594171", "about": "“DKK3-LRP1 complex and a chemical inhibitor regulate Aβ clearance in models of Alzheimer’s disease” (Science Advances, 2025)", "binders": {"B1": {"name": "mLRPIV-6 × His, prokaryotically expressed (domain or fragment)", "chain": "not shown"}}, "key": {"DKK1-AP": {"target": "T1, DKK1-AP (UniProt O94907 32-266)", "T1 construct": "DKK1 cDNA cloned into the pAPtag-5 vector (GenHunter, QV5); also called DKK1 tagged with alkaline phosphatase (AP) and 6 × His; source: HEK293, transfected, conditioned medium; purified with Ni-NTA Agarose beads; not shown: alkaline phosphatase (AP), C-terminal, kept", "T1 sequence (looked up)": "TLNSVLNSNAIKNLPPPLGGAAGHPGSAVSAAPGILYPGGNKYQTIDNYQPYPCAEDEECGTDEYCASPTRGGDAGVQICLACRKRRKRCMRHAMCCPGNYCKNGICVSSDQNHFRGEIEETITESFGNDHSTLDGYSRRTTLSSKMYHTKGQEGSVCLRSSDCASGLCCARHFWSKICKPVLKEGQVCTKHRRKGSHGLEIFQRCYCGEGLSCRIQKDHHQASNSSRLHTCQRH", "experiment": "SPR; Biacore T200; purified mLRPIV-6×His (15 μM) amine-coupled to a CM5 chip; DKK1 or DKK3 at 6.25 to 200 nM", "details": "both partners purified"}, "DKK3-AP": {"target": "T2, DKK3-AP (UniProt Q9UBP4 22-350)", "T2 construct": "DKK3 cDNA cloned into the pAPtag-5 vector (GenHunter, QV5); also called DKK3 tagged with alkaline phosphatase (AP) and 6 × His; source: HEK293, transfected, conditioned medium; purified with Ni-NTA Agarose beads; not shown: alkaline phosphatase (AP), C-terminal, kept", "T2 sequence (Q9UBP4 22-350)": "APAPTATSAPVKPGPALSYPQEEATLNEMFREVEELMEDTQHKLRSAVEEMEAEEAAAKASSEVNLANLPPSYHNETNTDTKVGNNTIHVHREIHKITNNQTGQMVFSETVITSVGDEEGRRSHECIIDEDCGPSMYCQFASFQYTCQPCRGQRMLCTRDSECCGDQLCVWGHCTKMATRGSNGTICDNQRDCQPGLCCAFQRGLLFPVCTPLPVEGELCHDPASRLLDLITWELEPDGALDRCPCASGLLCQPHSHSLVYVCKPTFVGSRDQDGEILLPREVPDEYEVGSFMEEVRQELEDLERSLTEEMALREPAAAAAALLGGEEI", "experiment": "SPR; Biacore T200; purified mLRPIV-6×His (15 μM) amine-coupled to a CM5 chip; DKK1 or DKK3 at 6.25 to 200 nM", "details": "both partners purified"}}, "data": [{"binder": "B1", "values": [{"measurement": "Kd", "setting": "DKK1-AP", "value": 82.3, "unit": "nM"}, {"measurement": "Kd", "setting": "DKK3-AP", "value": 35.5, "unit": "nM"}]}]}
